Data on one substance can be found in US20180312565A1.

This test has as its target PD-L1 on PD-L1 expressing cells (IFNg-stimulated THP-1 cells; MDA-MB-231 cells) (UniProt Q9NZQ7). Kind of test: FACS, MDA-MB-231 cells, 1 µg/ml, other secondary antibody.

Chain of PD-L1 on PD-L1 expressing cells (IFNg-stimulated THP-1 cells; MDA-MB-231 cells) (Q9NZQ7 19-290 limits assumed): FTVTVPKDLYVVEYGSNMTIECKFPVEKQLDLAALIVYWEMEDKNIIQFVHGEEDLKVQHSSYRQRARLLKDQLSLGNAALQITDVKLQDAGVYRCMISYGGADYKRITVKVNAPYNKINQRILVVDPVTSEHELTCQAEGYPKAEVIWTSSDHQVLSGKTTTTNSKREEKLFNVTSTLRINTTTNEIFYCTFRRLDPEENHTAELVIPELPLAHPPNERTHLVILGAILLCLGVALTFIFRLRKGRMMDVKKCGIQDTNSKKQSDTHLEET

Take “mouse anti-PD-L1 antibody (R&D Systems, cat. no. MAB1561)”: the MFI is 610.
